Test results as given in paper PMC8844075, “Structural basis of neuropeptide Y signaling through Y1 receptor” (Nature Communications, 2022).

How the values were obtained:
[1] = target: Y1R-eYFP (wild-type Y1R) (human) (UniProt P25929)
[2] = target: Y1R-eYFP (wild-type Y1R) (human) (UniProt P25929); remark: listed apart in the source

Y1R-eYFP (wild-type Y1R) (human), sequence (P25929 whole entry): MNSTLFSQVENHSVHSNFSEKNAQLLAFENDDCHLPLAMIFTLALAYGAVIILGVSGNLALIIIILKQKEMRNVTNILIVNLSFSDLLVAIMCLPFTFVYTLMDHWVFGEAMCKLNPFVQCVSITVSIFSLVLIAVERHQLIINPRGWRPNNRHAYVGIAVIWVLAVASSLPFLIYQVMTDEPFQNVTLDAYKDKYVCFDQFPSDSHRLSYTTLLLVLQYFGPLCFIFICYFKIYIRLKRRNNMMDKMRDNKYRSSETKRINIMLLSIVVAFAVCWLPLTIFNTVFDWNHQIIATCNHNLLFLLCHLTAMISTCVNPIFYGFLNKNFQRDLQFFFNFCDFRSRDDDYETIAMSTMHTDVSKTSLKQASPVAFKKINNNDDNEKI

signalling assay, increase of EC50 compared to NPY [1] [fold] | signalling assay (Ca2+), decrease in potency compared to full-length NPY [2] [fold] | Binder
64 |  | APLEPVYPGDNATPEQMAQYAADLRRYINMLTRPRY [pancreatic polypeptide (PP)]
 | 300 | ARYYSALRHYINLITRQRY [NPY(18–36)]
